The results in this text go back to article PMC5712524, “Mechanism of early light signaling by the carboxy-terminal output module of Arabidopsis phytochrome B” (Nature Communications, 2017).

For series [1], the target named is T1, GST-PIF3 (Arabidopsis, UniProt O80536 1-524).
T1 construct: the construct is not described here
T1 sequence (looked up): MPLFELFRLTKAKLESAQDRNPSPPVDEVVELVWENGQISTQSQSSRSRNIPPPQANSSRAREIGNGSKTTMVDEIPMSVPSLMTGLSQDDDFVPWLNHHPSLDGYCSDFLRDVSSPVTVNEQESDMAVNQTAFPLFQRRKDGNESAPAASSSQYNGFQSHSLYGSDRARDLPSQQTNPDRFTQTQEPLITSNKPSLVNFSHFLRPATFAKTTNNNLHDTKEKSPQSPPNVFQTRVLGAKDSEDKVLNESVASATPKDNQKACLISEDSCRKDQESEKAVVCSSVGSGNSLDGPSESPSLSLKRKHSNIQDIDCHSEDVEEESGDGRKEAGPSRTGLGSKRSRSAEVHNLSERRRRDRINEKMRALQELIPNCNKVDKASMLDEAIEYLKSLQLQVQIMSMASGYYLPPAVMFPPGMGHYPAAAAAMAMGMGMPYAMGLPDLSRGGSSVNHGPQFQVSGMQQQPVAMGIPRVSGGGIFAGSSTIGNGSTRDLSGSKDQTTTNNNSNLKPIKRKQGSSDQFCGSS
Description: pull-down; GST pull-down: immobilized GST-PIF3 pulls down HA-tagged PHYB in the Pr form; anti-HA immunoblot; procedure as ref. 33. Conditions: one partner purified.

Series [2] deals with the molecule itself. The series can be described thus: co-IP; in vitro co-immunoprecipitation: HA-tagged bait and Myc-tagged prey co-expressed in TNT T7 reticulocyte lysate, anti-HA Affinity Matrix, E buffer (50 mM Tris-HCl pH 7.5, 100 mM NaCl, 1 mM EDTA, 1 mM EGTA, 1% DMSO, 2 mM DTT, 0.1% Nonidet P-40), 4 °C 2 h; anti-Myc immunoblot. On the technique in general: In western blotting, separated proteins are transferred to a membrane and probed.

Series [3] has as its target T1, GST-PIF3. Description: pull-down; GST pull-down: immobilized GST-PIF3 pulls down HA-tagged PHYB as apoprotein; anti-HA immunoblot; procedure as ref. 33. The settings on record: one partner purified.

B1: PHYB18-HA (PHYB D1040V), Pr or Pfr form (natural protein, Arabidopsis, UniProt P14713 1-1172, looked up)
chain: MVSGVGGSGGGRGGGRGGEEEPSSSHTPNNRRGGEQAQSSGTKSLRPRSNTESMSKAIQQYTVDARLHAVFEQSGESGKSFDYSQSLKTTTYGSSVPEQQITAYLSRIQRGGYIQPFGCMIAVDESSFRIIGYSENAREMLGIMPQSVPTLEKPEILAMGTDVRSLFTSSSSILLERAFVAREITLLNPVWIHSKNTGKPFYAILHRIDVGVVIDLEPARTEDPALSIAGAVQSQKLAVRAISQLQALPGGDIKLLCDTVVESVRDLTGYDRVMVYKFHEDEHGEVVAESKRDDLEPYIGLHYPATDIPQASRFLFKQNRVRMIVDCNATPVLVVQDDRLTQSMCLVGSTLRAPHGCHSQYMANMGSIASLAMAVIINGNEDDGSNVASGRSSMRLWGLVVCHHTSSRCIPFPLRYACEFLMQAFGLQLNMELQLALQMSEKRVLRTQTLLCDMLLRDSPAGIVTQSPSIMDLVKCDGAAFLYHGKYYPLGVAPSEVQIKDVVEWLLANHADSTGLSTDSLGDAGYPGAAALGDAVCGMAVAYITKRDFLFWFRSHTAKEIKWGGAKHHPEDKDDGQRMHPRSSFQAFLEVVKSRSQPWETAEMDAIHSLQLILRDSFKESEAAMNSKVVDGVVQPCRDMAGEQGIDELGAVAREMVRLIETATVPIFAVDAGGCINGWNAKIAELTGLSVEEAMGKSLVSDLIYKENEATVNKLLSRALRGDEEKNVEVKLKTFSPELQGKAVFVVVNACSSKDYLNNIVGVCFVGQDVTSQKIVMDKFINIQGDYKAIVHSPNPLIPPIFAADENTCCLEWNMAMEKLTGWSRSEVIGKMIVGEVFGSCCMLKGPDALTKFMIVLHNAIGGQDTDKFPFPFFDRNGKFVQALLTANKRVSLEGKVIGAFCFLQIPSPELQQALAVQRRQDTECFTKAKELAYICQVIKNPLSGMRFANSLLEATDLNEDQKQLLETSVSCEKQISRIVGDMDLESIEDGSFVLKREEFFLGSVINAIVSQAMFLLRDRGLQLIRDIPEEIKSIEVFGVQIRIQQLLAEFLLSIIRYAPSQEWVEIHLSQLSKQMADGFAAIRTEFRMACPGEGLPPELVRDMFHSSRWTSPEGLGLSVCRKILKLMNGEVQYIRESERSYFLIILELPVPRKRPLSTASGSGDMMLMMPY
modifications: Pr or Pfr form (chromophore used not named for this experiment)
notes: Same chain as m21, with chromophore; not shown: HA, C-terminal, kept
Consider B1, for which the “interaction relative to that of PHYB-HA” value with GST-PIF3 [1] was ~0.33 fraction of wild type.

B2: full-length PHYB18 (PHYB D1040V), N-terminal HA- or Myc-tagged (natural protein, Arabidopsis, UniProt P14713 1-1172, looked up)
chain: MVSGVGGSGGGRGGGRGGEEEPSSSHTPNNRRGGEQAQSSGTKSLRPRSNTESMSKAIQQYTVDARLHAVFEQSGESGKSFDYSQSLKTTTYGSSVPEQQITAYLSRIQRGGYIQPFGCMIAVDESSFRIIGYSENAREMLGIMPQSVPTLEKPEILAMGTDVRSLFTSSSSILLERAFVAREITLLNPVWIHSKNTGKPFYAILHRIDVGVVIDLEPARTEDPALSIAGAVQSQKLAVRAISQLQALPGGDIKLLCDTVVESVRDLTGYDRVMVYKFHEDEHGEVVAESKRDDLEPYIGLHYPATDIPQASRFLFKQNRVRMIVDCNATPVLVVQDDRLTQSMCLVGSTLRAPHGCHSQYMANMGSIASLAMAVIINGNEDDGSNVASGRSSMRLWGLVVCHHTSSRCIPFPLRYACEFLMQAFGLQLNMELQLALQMSEKRVLRTQTLLCDMLLRDSPAGIVTQSPSIMDLVKCDGAAFLYHGKYYPLGVAPSEVQIKDVVEWLLANHADSTGLSTDSLGDAGYPGAAALGDAVCGMAVAYITKRDFLFWFRSHTAKEIKWGGAKHHPEDKDDGQRMHPRSSFQAFLEVVKSRSQPWETAEMDAIHSLQLILRDSFKESEAAMNSKVVDGVVQPCRDMAGEQGIDELGAVAREMVRLIETATVPIFAVDAGGCINGWNAKIAELTGLSVEEAMGKSLVSDLIYKENEATVNKLLSRALRGDEEKNVEVKLKTFSPELQGKAVFVVVNACSSKDYLNNIVGVCFVGQDVTSQKIVMDKFINIQGDYKAIVHSPNPLIPPIFAADENTCCLEWNMAMEKLTGWSRSEVIGKMIVGEVFGSCCMLKGPDALTKFMIVLHNAIGGQDTDKFPFPFFDRNGKFVQALLTANKRVSLEGKVIGAFCFLQIPSPELQQALAVQRRQDTECFTKAKELAYICQVIKNPLSGMRFANSLLEATDLNEDQKQLLETSVSCEKQISRIVGDMDLESIEDGSFVLKREEFFLGSVINAIVSQAMFLLRDRGLQLIRDIPEEIKSIEVFGVQIRIQQLLAEFLLSIIRYAPSQEWVEIHLSQLSKQMADGFAAIRTEFRMACPGEGLPPELVRDMFHSSRWTSPEGLGLSVCRKILKLMNGEVQYIRESERSYFLIILELPVPRKRPLSTASGSGDMMLMMPY
notes: Two differently tagged copies: the bait copy has the HA tag, the prey copy the Myc tag (each copy has one tag only); also called HA-PHYB18; Myc-PHYB18; source: in vitro translated (TNT T7 Coupled Reticulocyte Lysate System), co-expressed; not shown: HA, N-terminal, kept; Myc, N-terminal, kept
Regarding B2, in series [2], the “fold reduction of the interaction against wild-type PHYB” value was determined as 5 fold.

B3: PHYB18-HA (PHYB D1040V), apoprotein (natural protein, Arabidopsis, UniProt P14713 1-1172, looked up)
chain: MVSGVGGSGGGRGGGRGGEEEPSSSHTPNNRRGGEQAQSSGTKSLRPRSNTESMSKAIQQYTVDARLHAVFEQSGESGKSFDYSQSLKTTTYGSSVPEQQITAYLSRIQRGGYIQPFGCMIAVDESSFRIIGYSENAREMLGIMPQSVPTLEKPEILAMGTDVRSLFTSSSSILLERAFVAREITLLNPVWIHSKNTGKPFYAILHRIDVGVVIDLEPARTEDPALSIAGAVQSQKLAVRAISQLQALPGGDIKLLCDTVVESVRDLTGYDRVMVYKFHEDEHGEVVAESKRDDLEPYIGLHYPATDIPQASRFLFKQNRVRMIVDCNATPVLVVQDDRLTQSMCLVGSTLRAPHGCHSQYMANMGSIASLAMAVIINGNEDDGSNVASGRSSMRLWGLVVCHHTSSRCIPFPLRYACEFLMQAFGLQLNMELQLALQMSEKRVLRTQTLLCDMLLRDSPAGIVTQSPSIMDLVKCDGAAFLYHGKYYPLGVAPSEVQIKDVVEWLLANHADSTGLSTDSLGDAGYPGAAALGDAVCGMAVAYITKRDFLFWFRSHTAKEIKWGGAKHHPEDKDDGQRMHPRSSFQAFLEVVKSRSQPWETAEMDAIHSLQLILRDSFKESEAAMNSKVVDGVVQPCRDMAGEQGIDELGAVAREMVRLIETATVPIFAVDAGGCINGWNAKIAELTGLSVEEAMGKSLVSDLIYKENEATVNKLLSRALRGDEEKNVEVKLKTFSPELQGKAVFVVVNACSSKDYLNNIVGVCFVGQDVTSQKIVMDKFINIQGDYKAIVHSPNPLIPPIFAADENTCCLEWNMAMEKLTGWSRSEVIGKMIVGEVFGSCCMLKGPDALTKFMIVLHNAIGGQDTDKFPFPFFDRNGKFVQALLTANKRVSLEGKVIGAFCFLQIPSPELQQALAVQRRQDTECFTKAKELAYICQVIKNPLSGMRFANSLLEATDLNEDQKQLLETSVSCEKQISRIVGDMDLESIEDGSFVLKREEFFLGSVINAIVSQAMFLLRDRGLQLIRDIPEEIKSIEVFGVQIRIQQLLAEFLLSIIRYAPSQEWVEIHLSQLSKQMADGFAAIRTEFRMACPGEGLPPELVRDMFHSSRWTSPEGLGLSVCRKILKLMNGEVQYIRESERSYFLIILELPVPRKRPLSTASGSGDMMLMMPY
notes: not shown: HA, C-terminal, kept
Consider B3, for which the “interaction relative to that of PHYB-HA” value with GST-PIF3 [3] was ~0.33 fraction of wild type.
